# Source: article PMC6044645
# Target: Class I polyhydroxyalkanoate synthase (PhaC) from Rhodovulum sulfidophilum (Rhodovulum sulfidophilum)
# Assay: SEC
substance,measurement,value
Class I polyhydroxyalkanoate synthase (PhaC) from Rhodovulum sulfidophilum (from UniProt A0ABS1RUN8 1-567) (enzyme),stoichiometry N,2
